Assay results as given in paper PMC8216460 (Nucleic Acids Research, 2021).

B1: VcDnaB, replicative helicase DnaB from Vibrio cholerae (enzyme)
chain: MADPRTDNRNRKIPDAQVDAIKVPPHSLEAEQSVIGGLLLDNERWDTVSEHVMTQDFYSRPHRLIFDGVKSILEAGKPLDLITLSEYLEQREQLEDVGGFAYLADLAKNTPSAANINAYAEIVAERALVRNLIGVANEIADAGYDPQGRNAEDLLDLAESKVFAIAEARTSENEGPKNVDSILERTLERIELLYKTPQDGVTGVNTGFTDLNKKTAGLQGSDLIIVAARPSMGKTTFAMNLCENAAMEQDKPVLIFSLEMPAEQIMMRMLASLSRVDQTKIRTGQLDDEDWARISSTMGILMEKKNMYIDDSSGLTPTEVRSRARRIAREHGGLSLIMVDYLQLMRVPALTDNRTLEIAEISRSLKALAKELNVPVVALSQLNRSLEQRADKRPVNSDLRESGSIEQDADLIMFIYRDEVYHPDSPLKGTAEIIIGKQRNGPIGSVRLTFQGHYSRFDNYAGPAFDDE

Key:
[1] = biological target: VcDnaB, replicative helicase DnaB from Vibrio cholerae (Vibrio cholerae); assay: SEC-SAXS
[2] = biological target: VcDnaB, replicative helicase DnaB from Vibrio cholerae (Vibrio cholerae); assay: SPR
crystal structure = biological target: the molecule itself; assay: crystal structure
SEC-MALS = biological target: the molecule itself; assay: SEC-MALS
[3] = biological target: B1; assay: SPR
VcDnaB^S296G = VcDnaB^S296G (Vibrio cholerae, UniProt A0A085R2T8 1-468, S296G); assay: SPR
EcDnaB^G299S = EcDnaB^G299S (E. coli, UniProt P0ACB0 1-471, G299S); assay: SPR

Molecule: VcDciA, DciA from Vibrio cholerae (natural protein)
- stoichiometry N (VcDciA per VcDnaB hexamer) [1]: 3
- stoichiometry N (VcDciA per 6 VcDnaB) [2]: 3

Molecule: B1
- stoichiometry N (crystal structure): 6 subunits

B2: VcDnaB, replicative helicase DnaB from Vibrio cholerae (enzyme)
chain: MADPRTDNRNRKIPDAQVDAIKVPPHSLEAEQSVIGGLLLDNERWDTVSEHVMTQDFYSRPHRLIFDGVKSILEAGKPLDLITLSEYLEQREQLEDVGGFAYLADLAKNTPSAANINAYAEIVAERALVRNLIGVANEIADAGYDPQGRNAEDLLDLAESKVFAIAEARTSENEGPKNVDSILERTLERIELLYKTPQDGVTGVNTGFTDLNKKTAGLQGSDLIIVAARPSMGKTTFAMNLCENAAMEQDKPVLIFSLEMPAEQIMMRMLASLSRVDQTKIRTGQLDDEDWARISSTMGILMEKKNMYIDDSSGLTPTEVRSRARRIAREHGGLSLIMVDYLQLMRVPALTDNRTLEIAEISRSLKALAKELNVPVVALSQLNRSLEQRADKRPVNSDLRESGSIEQDADLIMFIYRDEVYHPDSPLKGTAEIIIGKQRNGPIGSVRLTFQGHYSRFDNYAGPAFDDE
- stoichiometry N (SEC-MALS): 6

B3: EcDnaC, helicase loader DnaC from E. coli (natural protein)
chain: MKNVGDLMQRLQKMMPAHIKPAFKTGEELLAWQKEQGAIRSAALERENRAMKMQRTFNRSGIRPLHQNCSFENYRVECEGQMNALSKARQYVEEFDGNIASFIFSGKPGTGKNHLAAAICNELLLRGKSVLIITVADIMSAMKDTFRNSGTSEEQLLNDLSNVDLLVIDEIGVQTESKYEKVIINQIVDRRSSSKRPTGMLTNSNMEEMTKLLGERVMDRMRLGNSLWVIFNWDSYRSRVTGKEY
- binding result [3]: binds
- binding result (VcDnaB^S296G): binds
- fold change of the dissociation rate against EcDnaB (EcDnaB^G299S): 2 fold
